Assay results taken from patent US20100303814A1 (VIVENTIA BIOTECHNOLOGIES, published 2010).
Where no end group is shown, it is not given here. The star is where a group is joined. Biotin = O=C1N[C@H]2[C@H](CS[C@H]2CCCCC(=O)*)N1

Legend:
[1] = molecular target: T1, PSPep1 (Biotin TARIRAVGLLTVISK) (human); assay: ELISA on peptide-coated plate
T1 construct: Synthetic peptide, part of the immunogen of the commercial anti-PSCA antibodies, 1823.9 amu
T1 peptide: Biotin-TARIRAVGLLTVISK
Experimental: (§1) Peptide solutions were diluted 1-in-100 with Hank's buffered saline solution (HBSS) containing 0.5% formaldehyde. 100 μL of diluted peptide solution was distributed to each well in a 96-well plate. The plates were incubated at room temperature for 1 hour. The supernatant was removed and the plates were placed uncovered in a 37° C. incubator for 16-18 hours. The peptide-coated plates were placed in plastic bags and stored at 2-8° C. until required.
(§2) The plates were washed as previously described with the wash buffer (PBS containing 0.5% Tween 20). The plates were incubated with 1:6000 dilution of anti-human IgG-HRP for one hour at room temperature. The plates were washed as previously described. 100 μL of TMB substrate (TMB peroxidase substrate KPL cat# 50-76-00) was added to each well and incubated for 5-10 minutes in the dark. The reaction was terminated by adding 100 μL of 1M phosphoric acid to each well. The optical density was measured at 450 nm using an ELISA plate reader.

[2] = molecular target: T2, PSPep3 (Biotin LCNASGAHALQ), negative peptide (human); assay: ELISA on peptide-coated plate
T2 construct: Synthetic peptide derived from PSCA, 1306.59 amu; also called PSPep3 (Negative)
T2 peptide: Biotin-LCNASGAHALQ
Experimental: as §1, §2

[3] = molecular target: T3, antigen bound by VB1-213 on A-375 tumor cells; assay: flow cytometry saturation curve on A-375 cells, Lineweaver-Burk method
T3 construct: Placeholder target for the KD measured on whole A-375 cells; also called A-375 carcinoma cells
Experimental: Flow cytometry was used to assess binding affinity (C. A. Benedict, A. J. MacKrell, W. F. Anderson, J. Immunol. Methods 201, 223 (1997)). A range of antibody concentrations were tested against a fixed number of tumor cells (A-375) for 2 hours to obtain a saturation curve. Values and graphical analysis were generated using Sigma Plot (Jandel Scientific, San Rafael, Calif.). The inverse of the determined median fluorescence was plotted as a function of the inverse of antibody concentration to determine KD by the Lineweaver-Burk method.

[4] = molecular target: T4, prostate stem cell antigen (PSCA) (human, UniProt O43653 12-83); assay: immunoprecipitation with VB1-213, in-solution digest, mass spectrometry
T4 sequence: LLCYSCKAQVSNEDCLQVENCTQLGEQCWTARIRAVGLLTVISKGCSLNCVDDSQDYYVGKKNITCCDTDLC
Experimental: A pre-clearing step using protein-G sepharose alone was the first step in the purification of the antigen prior to the addition of the antibody. In certain cases, pre-clearing was performed twice to add more stringency to the assay. A total of 50 μg of antibody was used as the precipitating agent in the mixture. The antigen-antibody mixtures were nutated overnight at 4° C. using buffer conditions that mimicked physiological conditions. Care was taken to ensure that protease inhibitors were used in every step of the antigen isolation process.
The extracted peptides were concentrated and desalted using μ-C18 columns and used for MS analysis. Two distinct proteins were identified, in all three cell lines, as “Mixture1”, consisting of HnRNPG+Prostate stem cell antigen (PSCA). HnRNPG and PSCA were identified as a “Mixture1”, each with 76% and 95% sequence coverage and a highly significant combined score of 413. The sequence coverage and peptides corresponding to PSCA are shown in FIGS. 18 and 19 and Table 7 (SEQ ID NO: 18 to 22). The peptides isolated by this method corresponding to HnRNPG as shown in Table 8 (SEQ ID NO: 72 to 110).

B1: VB1-213 monoclonal antibody (antibody, human IgG1, V domains shown)
VH: EVQLLESGGGLVQPGGSLRLSCAASGFTFRSYAMSWVRQAPGKGLEWVSTISGRGVTTYYADSVKGRFTISRDNSKNTLYLQMNSLRADDTALYYCAKDRTRYYGMDVWGQGTTVTVSS
VL: SYELTQPPSVSVSPGQTASITCSGNKLGDKYACWYQQKSGQSPVLVIYQDSKRPSGIPERFSGSNSGNTATLTISGTQALDEADYYCQAWDNSTAVFGGGTKLTVLG
notes: Human IgG1, lambda monoclonal antibody from a hybridoma (lymph node cells of an ovarian cancer patient fused with MFP-2); no constant regions for the IgG as tested
binding result [1]: no binding
binding result [2]: no binding
Kd [3]: 627 nM
binding result [4]: binds
